Results from publication PMC6797443, “Experimental characterization of two archaeal inosine 5'-monophosphate cyclohydrolases” (PLoS ONE, 2019).

How the values were obtained:
[1] = system: NC(=O)c1ncn([C@@H]2O[C@H](COP(=O)(O)O)[C@@H](O)[C@H]2O)c1NC=O; experiment: purified protein; type: biochemical, Archaeoglobus fulgidus; details: 0.050 M Tris, pH 7.3, 50°C, MBP fusion
[2] = system: NC(=O)c1ncn([C@@H]2O[C@H](COP(=O)(O)O)[C@@H](O)[C@H]2O)c1NC=O; experiment: purified protein; type: biochemical, Thermococcus kodakarensis; details: 0.050 M Tris, pH 7.3, 50°C, MBP fusion

| Substance | Km [1] [µM] | kcat [1] [s⁻¹] | Km [2] [µM] | kcat [2] [s⁻¹] |
| --- | --- | --- | --- | --- |
| AF1811 (Archaeoglobus fulgidus PurH2) (Archaeoglobus fulgidus DSM 4304) | 7.8 ± 1.8 | 1.32 ± 0.14 | – | – |
| TK0430 (Thermococcus kodakarensis PurO) (Thermococcus kodakarensis KOD1) | – | – | 1.56 ± 0.39 | 0.48 ± 0.04 |
